From the supplement of paper PMC9116672
± gives the standard deviation of the averaged measurements or the uncertainty stated by the source.

How the values were obtained:
[1] = duplex formation enthalpy ΔH (Van't Hoff fit of HRM Tm); higher = less exothermic duplex formation; details: temperature for dG: 50 °C, NaCl: 500 mM (unadjusted)
Method: (§1)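 Duplex of the listed DNA strand with its complement, in 1x NNE buffer (500 mM NaCl, pH 7.0) with 1x EvaGreen. ΔH and ΔS come from a Van't Hoff linear fit of 1/Tm against ln(CT/4) over 1-20 uM, using HRM Tm values.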

[2] = duplex formation free energy ΔG50 (Van't Hoff fit of HRM Tm); higher = less stable duplex; details: temperature for dG: 50 °C, NaCl: 500 mM (unadjusted)
Method: as §1

[3] = duplex melting temperature (HRM, EvaGreen); higher = more stable duplex
Method: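 Listed DNA strand annealed 1:1 with its complementary strand (95 °C 5 min, 0.1 °C/s to 20 °C). Melted in 1x NNE buffer (500 mM NaCl, 10 mM Na2HPO4, 1 mM EDTA, pH 7.0) with 1x EvaGreen on a LightCycler96 (37 to 97 °C, 0.1 °C/s). Tm is the peak of -dF/dT at the stated total duplex concentration; 4 replicates are averaged. PS oligos are non-stereospecific (Rp/Sp mixtures).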

[4] = duplex formation entropy ΔS (Van't Hoff fit of HRM Tm); higher = smaller entropy loss on duplex formation; details: temperature for dG: 50 °C, NaCl: 500 mM (unadjusted)
Method: as §1

[5] = backbone: PO-PO (both strands phosphodiester DNA)
[6] = backbone: PS-PO (listed strand fully phosphorothioate, complement phosphodiester)
[7] = backbone: PS-PS (both strands fully phosphorothioate)
[8] = duplex concentration 1 µM, backbone: PS-PS (both strands fully phosphorothioate)
[9] = duplex concentration 2.5 µM, backbone: PO-PO (both strands phosphodiester DNA)
[10] = duplex concentration 2.5 µM, backbone: PS-PO (listed strand fully phosphorothioate, complement phosphodiester)
[11] = duplex concentration 2.5 µM, backbone: PS-PS (both strands fully phosphorothioate)
[12] = duplex concentration 5 µM, backbone: PO-PO (both strands phosphodiester DNA)
[13] = duplex concentration 5 µM, backbone: PS-PO (listed strand fully phosphorothioate, complement phosphodiester)
[14] = duplex concentration 5 µM, backbone: PS-PS (both strands fully phosphorothioate)
[15] = duplex concentration 7.5 µM, backbone: PO-PO (both strands phosphodiester DNA)
[16] = duplex concentration 7.5 µM, backbone: PS-PO (listed strand fully phosphorothioate, complement phosphodiester)
[17] = duplex concentration 7.5 µM, backbone: PS-PS (both strands fully phosphorothioate)
[18] = duplex concentration 10 µM, backbone: PO-PO (both strands phosphodiester DNA)
[19] = duplex concentration 10 µM, backbone: PS-PO (listed strand fully phosphorothioate, complement phosphodiester)
[20] = duplex concentration 10 µM, backbone: PS-PS (both strands fully phosphorothioate)
[21] = duplex concentration 15 µM, backbone: PO-PO (both strands phosphodiester DNA)
[22] = duplex concentration 15 µM, backbone: PS-PO (listed strand fully phosphorothioate, complement phosphodiester)
[23] = duplex concentration 15 µM, backbone: PS-PS (both strands fully phosphorothioate)
[24] = duplex concentration 20 µM, backbone: PO-PO (both strands phosphodiester DNA)
[25] = duplex concentration 20 µM, backbone: PS-PO (listed strand fully phosphorothioate, complement phosphodiester)
[26] = duplex concentration 20 µM, backbone: PS-PS (both strands fully phosphorothioate)

CCGTTGCTGCTAGG
duplex formation enthalpy ΔH [1, 5]: -67.8 ± 4.5 kcal/mol
duplex formation enthalpy ΔH [1, 6]: -69.4 ± 7.8 kcal/mol
duplex formation enthalpy ΔH [1, 7]: -40.7 ± 2.5 kcal/mol
duplex formation free energy ΔG50 [2, 5]: -12.3 ± 0.25 kcal/mol
duplex formation free energy ΔG50 [2, 6]: -11.1 ± 0.33 kcal/mol
duplex formation free energy ΔG50 [2, 7]: -9.23 ± 0.051 kcal/mol
duplex melting temperature [3, 8]: 45.8 ± 0.71 °C
duplex melting temperature [3, 9]: 65.75 ± 0.21 °C
duplex melting temperature [3, 10]: 59.6 °C
duplex melting temperature [3, 11]: 49.3 ± 1.4 °C
duplex melting temperature [3, 12]: 68 ± 0.31 °C
duplex melting temperature [3, 13]: 61.1 ± 1 °C
duplex melting temperature [3, 14]: 53.433 ± 0.0017 °C
duplex melting temperature [3, 15]: 69.13 ± 0.18 °C
duplex melting temperature [3, 16]: 63.1 ± 0.69 °C
duplex melting temperature [3, 17]: 56 °C
duplex melting temperature [3, 18]: 70.55 ± 0.22 °C
duplex melting temperature [3, 19]: 63.92 ± 0.4 °C
duplex melting temperature [3, 20]: 57.4 °C
duplex melting temperature [3, 21]: 71.88 ± 0.22 °C
duplex melting temperature [3, 22]: 65.35 ± 0.083 °C
duplex melting temperature [3, 23]: 60.5 °C
duplex melting temperature [3, 24]: 72.82 ± 0.098 °C
duplex melting temperature [3, 25]: 65.77 ± 0.2 °C
duplex melting temperature [3, 26]: 61.75 ± 0.28 °C
duplex formation entropy ΔS [4, 5]: -172 ± 13 cal/mol/K
duplex formation entropy ΔS [4, 6]: -180 ± 23 cal/mol/K
duplex formation entropy ΔS [4, 7]: -97.4 ± 7.7 cal/mol/K

CGACATGTATGGCACAG
duplex formation enthalpy ΔH [1, 5]: -77.2 ± 2 kcal/mol
duplex formation enthalpy ΔH [1, 6]: -84.2 ± 1.3 kcal/mol
duplex formation enthalpy ΔH [1, 7]: -79.1 ± 2.7 kcal/mol
duplex formation free energy ΔG50 [2, 5]: -13.17 ± 0.12 kcal/mol
duplex formation free energy ΔG50 [2, 6]: -11.9 ± 0.052 kcal/mol
duplex formation free energy ΔG50 [2, 7]: -9.881 ± 0.049 kcal/mol
duplex melting temperature ([3]; duplex concentration 1 µM, backbone: PO-PO (both strands phosphodiester DNA)): 64.55 ± 0.5 °C
duplex melting temperature ([3]; duplex concentration 1 µM, backbone: PS-PO (listed strand fully phosphorothioate, complement phosphodiester)): 58.38 ± 0.3 °C
duplex melting temperature [3, 8]: 50.2 ± 0.26 °C
duplex melting temperature [3, 9]: 67.76 ± 0.17 °C
duplex melting temperature [3, 10]: 60.82 ± 0.11 °C
duplex melting temperature [3, 11]: 53.07 ± 0.18 °C
duplex melting temperature [3, 12]: 69.89 ± 0.28 °C
duplex melting temperature [3, 13]: 62.71 ± 0.088 °C
duplex melting temperature [3, 14]: 55.02 ± 0.11 °C
duplex melting temperature [3, 15]: 70.97 ± 0.12 °C
duplex melting temperature [3, 16]: 63.78 ± 0.073 °C
duplex melting temperature [3, 17]: 56.02 ± 0.081 °C
duplex melting temperature [3, 18]: 71.86 ± 0.14 °C
duplex melting temperature [3, 19]: 64.547 ± 0.024 °C
duplex melting temperature [3, 20]: 56.75 ± 0.13 °C
duplex melting temperature [3, 21]: 73.04 ± 0.17 °C
duplex melting temperature [3, 22]: 65.56 ± 0.091 °C
duplex melting temperature [3, 23]: 57.63 ± 0.092 °C
duplex melting temperature [3, 24]: 73.85 ± 0.16 °C
duplex melting temperature [3, 25]: 66.343 ± 0.048 °C
duplex melting temperature [3, 26]: 58.35 ± 0.083 °C
duplex formation entropy ΔS [4, 5]: -198 ± 5.8 cal/mol/K
duplex formation entropy ΔS [4, 6]: -224 ± 3.8 cal/mol/K
duplex formation entropy ΔS [4, 7]: -214 ± 8.2 cal/mol/K
